Laboratory results taken from publication PMC1762332, “Catalases Are NAD(P)H-Dependent Tellurite Reductases” (PLoS ONE, 2006).

Legend:
[1] = biological target: the molecule itself; test: native gel or EMSA; purified bovine liver catalase on native 12% polyacrylamide gel, 40 mM Tris-glycine pH 8.3, 4°C; band compared with a 244 kDa standard; dismutase and tellurite reductase activities stained in situ
[2] = biological target: the molecule itself; test: native gel or EMSA; crude extracts of E. coli Top10 (pCAT) on native 12% polyacrylamide gel, 40 mM Tris-glycine pH 8.3, 4°C; catalase found by H2O2 dismutase and tellurite reductase activity staining in situ

Protein | stoichiometry N [1] | stoichiometry N [2]
bovine liver catalase (enzyme, UniProt P00432 1-527, looked up, catalase (EC 1.11.1.6) from bovine liver, commercial purified enzyme; the legend calls it a tetramer of 255 kDa; also called bovine catalase; catalase (C-9322); source: bought: Sigma (C-9322), purified) MADNRDPASDQMKHWKEQRAAQKPDVLTTGGGNPVGDKLNSLTVGPRGPLLVQDVVFTDEMAHFDRERIPERVVHAKGAGAFGYFEVTHDITRYSKAKVFEHIGKRTPIAVRFSTVAGESGSADTVRDPRGFAVKFYTEDGNWDLVGNNTPIFFIRDALLFPSFIHSQKRNPQTHLKDPDMVWDFWSLRPESLHQVSFLFSDRGIPDGHRHMNGYGSHTFKLVNANGEAVYCKFHYKTDQGIKNLSVEDAARLAHEDPDYGLRDLFNAIATGNYPSWTLYIQVMTFSEAEIFPFNPFDLTKVWPHGDYPLIPVGKLVLNRNPVNYFAEVEQLAFDPSNMPPGIEPSPDKMLQGRLFAYPDTHRHRLGPNYLQIPVNCPYRARVANYQRDGPMCMMDNQGGAPNYYPNSFSAPEHQPSALEHRTHFSGDVQRFNSANDDNVTQVRTFYLKVLNEEQRKRLCENIAGHLKDAQLFIQKKAVKNFSDVHPEYGSRIQALLDKYNEEKPKNAVHTYVQHGSHLSAREKANL | 4 | 
S. epidermidis CH catalase (product of the katA gene) expressed from plasmid pCAT (enzyme, Staphylococcus epidermidis CH, UniProt Q2PUJ9 1-504, looked up, catalase KatA of Staphylococcus epidermidis strain CH; The coding region was amplified with primers from the ATG to the stop codon; The 1,515 bp gene is deposited as GenBank DQ301862 and differs by 15 bp from its homolog SE1016 in strain ATCC12228; Cloned with the pBAD TOPO TA Expression Kit; also called S. epidermidis catalase; 60 kDa protein; source: E. coli Top10 carrying pCAT (pBAD vector), …) MSKQDGKLTGLFGAPVSDRENSMTAGRRGPLLMQDVYYLEQISHFDREVIPERRMHAKGSGAFGTFTVTNDITQYTNAKIFSEVGKQTEMFARFSTVSGERGAADLERDIRGFALKFYTEDGNWDLVGNNTPVFFFRDPKLFISLNRAVKRDPRTNMRSAQNNWDFWTGLPEALHQVTILMSDRGMPKGFRNMHGFGSHTYSMYNDKGERVWVKYHFRTQQGIENYTDEEAAKIVGMDRDSSQRDLYNAIENGDYPKWKMYIQVMTEEQAKNHPDNPFDLTKVWYKKDYPLIEVGEFELNRNPENYFLDVEQAAFAPTNIVPGLDYSPDKMLQGRLFSYGDAQRYRLGVNHWQIPVNQPKGVGVENLCPFSRDGQMRFLDNNQGGGPHYYPNNQGIYESQPEHKKPPFPTDGDGYEYNYRQDDDNYFEQPGKLFRLQSEDAKERIFTNTANAMDGVSKDVKVRHIRHCYKADPEYGKGVAKALDIDINQIDLETNQDETYENFK |  | 4
